In patent US20090280138A1 (OXFORD BIOMEDICA UK, published 2009):

How the values were obtained:
[1] = biological target: T1, MHC class I molecule HLA-A*0201 (iTopia plate-bound monomer) (biotin (bound to streptavidin-coated plate)); assay: iTopia off-rate assay, 37 C; fit R^2 0.72
T1 construct: also called A2
Method: (§1) The 9 mers were tested for Peptide Binding, Off Rate and Affinity using iTopia Epitope Discovery System in accordance with the manufacturer's instructions. Briefly, 96 well microtitre plates coated with MHC molecules representing different MHC alleles are used to identify candidate peptides. […] Determinations are performed in duplicate using an ELISA plate reader and included allele specific positive controls.
(§2) A one-phase exponential decay curve, with a plateau given equal to 0, was generated using GraphPad Prism® software, which calculated the t1/2 and goodness-of-fit, as measured by r², for each peptide.

[2] = biological target: T1, MHC class I molecule HLA-A*0201 (iTopia …); assay: iTopia off-rate assay, 37 C; fit R^2 0.96
Method: as §1, §2

[3] = biological target: T1, MHC class I molecule HLA-A*0201 (iTopia …); assay: iTopia off-rate assay, 37 C; fit R^2 0.74
Method: as §1, §2

[4] = biological target: T1, MHC class I molecule HLA-A*0201 (iTopia …); assay: iTopia off-rate assay, 37 C; fit R^2 0.92
Method: as §1, §2

[5] = biological target: T2, MHC class I molecule HLA-B*0702 (iTopia plate-bound monomer) (biotin (bound to streptavidin-coated plate)); assay: iTopia off-rate assay, 37 C; fit R^2 0.44
T2 construct: Commercial iTopia system; also called B7
Method: as §1, §2

[6] = biological target: T1, MHC class I molecule HLA-A*0201 (iTopia …); assay: iTopia off-rate assay, 37 C; fit R^2 0.79
Method: as §1, §2

[7] = biological target: T1, MHC class I molecule HLA-A*0201 (iTopia …); assay: iTopia off-rate assay, 37 C; fit R^2 0.33
Method: as §1, §2

[8] = biological target: T1, MHC class I molecule HLA-A*0201 (iTopia …); assay: iTopia off-rate assay, 37 C; fit R^2 0.99
Method: as §1, §2

[9] = biological target: T1, MHC class I molecule HLA-A*0201 (iTopia …); assay: iTopia off-rate assay, 37 C; fit R^2 0.64
Method: as §1, §2

[10] = biological target: T1, MHC class I molecule HLA-A*0201 (iTopia …); assay: iTopia off-rate assay, 37 C; fit R^2 0.78
Method: as §1, §2

[11] = biological target: T3, MHC class I molecule HLA-A*0301 (iTopia plate-bound monomer) (biotin (bound to streptavidin-coated plate)); assay: iTopia off-rate assay, 37 C; fit R^2 0.96
T3 construct: also called A3
Method: as §1, §2

[12] = biological target: T1, MHC class I molecule HLA-A*0201 (iTopia …); assay: iTopia off-rate assay, 37 C; fit R^2 0.31
Method: as §1, §2

[13] = biological target: T2, MHC class I molecule HLA-B*0702 (iTopia …); assay: iTopia off-rate assay, 37 C; fit R^2 0.69
Method: as §1, §2

[14] = biological target: T1, MHC class I molecule HLA-A*0201 (iTopia …); assay: iTopia off-rate assay, 37 C; fit R^2 0.8
Method: as §1, §2

[15] = biological target: T1, MHC class I molecule HLA-A*0201 (iTopia …); assay: iTopia off-rate assay, 37 C; fit R^2 0.08
Method: as §1, §2

[16] = biological target: T1, MHC class I molecule HLA-A*0201 (iTopia …); assay: iTopia off-rate assay, 37 C; fit R^2 0.82
Method: as §1, §2

[17] = biological target: T1, MHC class I molecule HLA-A*0201 (iTopia …); assay: iTopia off-rate assay, 37 C; fit R^2 0.89
Method: as §1, §2

[18] = biological target: T2, MHC class I molecule HLA-B*0702 (iTopia …); assay: iTopia off-rate assay, 37 C; fit R^2 0.68
Method: as §1, §2

[19] = biological target: T1, MHC class I molecule HLA-A*0201 (iTopia …); assay: iTopia off-rate assay, 37 C; fit R^2 0.77
Method: as §1, §2

[20] = biological target: T1, MHC class I molecule HLA-A*0201 (iTopia …); assay: iTopia off-rate assay, 37 C; fit R^2 0.66
Method: as §1, §2

[21] = biological target: T1, MHC class I molecule HLA-A*0201 (iTopia …); assay: iTopia off-rate assay, 37 C; fit R^2 0.02
Method: as §1, §2

[22] = biological target: T1, MHC class I molecule HLA-A*0201 (iTopia …); assay: iTopia off-rate assay, 37 C; fit R^2 0.83
Method: as §1, §2

[23] = biological target: T1, MHC class I molecule HLA-A*0201 (iTopia …); assay: iTopia off-rate assay, 37 C; fit R^2 0.57
Method: as §1, §2

[24] = biological target: T1, MHC class I molecule HLA-A*0201 (iTopia …); assay: iTopia off-rate assay, 37 C; fit R^2 0.7
Method: as §1, §2

[25] = biological target: T1, MHC class I molecule HLA-A*0201 (iTopia …); assay: iTopia off-rate assay, 37 C; fit R^2 0.84
Method: as §1, §2

[26] = biological target: T3, MHC class I molecule HLA-A*0301 (iTopia …); assay: iTopia off-rate assay, 37 C; fit R^2 0.95
Method: as §1, §2

[27] = biological target: T1, MHC class I molecule HLA-A*0201 (iTopia …); assay: iTopia off-rate assay, 37 C; fit R^2 0.9
Method: as §1, §2

[28] = biological target: T2, MHC class I molecule HLA-B*0702 (iTopia …); assay: iTopia off-rate assay, 37 C; fit R^2 0.11
Method: as §1, §2

[29] = biological target: T3, MHC class I molecule HLA-A*0301 (iTopia …); assay: iTopia off-rate assay, 37 C; fit R^2 0.94
Method: as §1, §2

[30] = biological target: T1, MHC class I molecule HLA-A*0201 (iTopia …); assay: iTopia off-rate assay, 37 C; fit R^2 0.85
Method: as §1, §2

[31] = biological target: T1, MHC class I molecule HLA-A*0201 (iTopia …); assay: iTopia off-rate assay, 37 C; fit R^2 0.75
Method: as §1, §2

[32] = biological target: T2, MHC class I molecule HLA-B*0702 (iTopia …); assay: iTopia off-rate assay, 37 C; fit R^2 0.95
Method: as §1, §2

With LSHNPLADL (also called Peptide No 75) [5T4 9-mer peptide 75 LSHNPLADL] the t½ half life [1] was 1.3 h.

Work on SLVSLTYVS (also called Peptide No 123) [5T4 9-mer peptide 123 SLVSLTYVS] yielded a t½ half life [2] of 0.9 h.

Binder FLTGNQLAV (also called Peptide No 49) [5T4 9-mer peptide 49 FLTGNQLAV] has a t½ half life [3] of 10.6 h.

Binder LVLLGWVSS (also called Peptide No 12) [5T4 9-mer peptide 12 LVLLGWVSS] has a t½ half life [4] of 2.6 h.

VRAGAFEHL (also called Peptide No 67) [5T4 9-mer peptide 67 VRAGAFEHL] gave a t½ half life [5] of 0.4 h.

LDLSHNPLA (also called Peptide No 74) [5T4 9-mer peptide 74 LDLSHNPLA] showed a t½ half life [6] of 5.4 h.

SLQTSYVFL [5T4 9-mer peptide 176 SLQTSYVFL] was tested, and the t½ half life [7] was 12.4 h.

Work on LLGWVSSSS (also called Peptide No 13) [5T4 9-mer peptide 13 LLGWVSSSS] yielded a t½ half life [8] of 1.8 h.

ALKVLHNGT (also called Peptide No 135) [5T4 9-mer peptide 135 ALKVLHNGT] showed a t½ half life [9] of 1.5 h.

KVLHNGTLA (also called Peptide No 136) [5T4 9-mer peptide 136 KVLHNGTLA] was tested, and the t½ half life [10] was 2.2 h.

In the case of NNPWVCDCH (also called Peptide No 147) [5T4 9-mer peptide 147 NNPWVCDCH], the t½ half life [11] is reported as 0.2 h.

For AARTVKCVN (also called Peptide No 36) [5T4 9-mer peptide 36 AARTVKCVN], the t½ half life [12] was 11.1 h and the t½ half life [13] was 1.4 h.

In the case of ELAALNLSG (also called Peptide No 60) [5T4 9-mer peptide 60 ELAALNLSG], the t½ half life [9] is reported as 1.6 h.

Work on YEINADPRL (also called Peptide No 202) [5T4 9-mer peptide 202 YEINADPRL] yielded a t½ half life [14] of 0.6 h.

PPSLQTSYV (also called Peptide No 175) [5T4 9-mer peptide 175 PPSLQTSYV] was tested, and the t½ half life [15] was 12.7 h.

LTHLESLHL [5T4 9-mer peptide 129 LTHLESLHL] was tested, and the t½ half life [14] was 1 h.

HFLYLPRDV [5T4 9-mer peptide 111 HFLYLPRDV] was tested, and the t½ half life [16] was 2.9 h.

In the case of CVNRNLTEV (also called Peptide No 39) [5T4 9-mer peptide 39 CVNRNLTEV], the t½ half life [17] is reported as 1.3 h and the t½ half life [5] is reported as 0.7 h.

With LQGLRRLEL [5T4 9-mer peptide 105 LQGLRRLEL] the t½ half life [18] was 0.2 h and the t½ half life [19] was 2.1 h.

In the case of LYLPRDVLA (also called Peptide No 112) [5T4 9-mer peptide 112 LYLPRDVLA], the t½ half life [20] is reported as 3.4 h.

In the case of NRKGIKKWM [5T4 9-mer peptide 189 NRKGIKKWM], the t½ half life [12] is reported as 10 h.

SNASVSAPS (also called Peptide No 83) [5T4 9-mer peptide 83 SNASVSAPS] was tested, and the t½ half life [21] was 15.8 h.

RNLTHLESL (also called Peptide No 128) [5T4 9-mer peptide 128 RNLTHLESL] gave a t½ half life [22] of 0.9 h.

In the case of RSFEGMVVA (also called Peptide No 97) [5T4 9-mer peptide 97 RSFEGMVVA], the t½ half life [8] is reported as 0.7 h.

For LEDNALKVL (also called Peptide No 133) [5T4 9-mer peptide 133 LEDNALKVL], the t½ half life [23] was 5.7 h.

ARLALVLLG (also called Peptide No 10) [5T4 9-mer peptide 10 ARLALVLLG] gave a t½ half life [24] of 1.2 h.

SYVFLGIVL (also called Peptide No 178) [5T4 9-mer peptide 178 SYVFLGIVL] showed a t½ half life [10] of 5.1 h and a t½ half life [13] of 0.9 h.

HMADMVTWL [5T4 9-mer peptide 151 HMADMVTWL] showed a t½ half life [25] of 7.9 h.

Work on VSLTYVSFR [5T4 9-mer peptide 124 VSLTYVSFR] yielded a t½ half life [26] of 0.2 h.

In the case of TGNQLAVLP (also called Peptide No 50) [5T4 9-mer peptide 50 TGNQLAVLP], the t½ half life [15] is reported as 8.7 h.

For FEGMVVAAL (also called Peptide No 98) [5T4 9-mer peptide 98 FEGMVVAAL], the t½ half life [2] was 1.1 h.

ELILNHIVP (also called Peptide No 89) [5T4 9-mer peptide 89 ELILNHIVP] was tested, and the t½ half life [10] was 1.1 h.

LSGSRLDEV (also called Peptide No 63) [5T4 9-mer peptide 63 LSGSRLDEV] gave a t½ half life [27] of 0.5 h and a t½ half life [28] of 2.9 h.

NQLAVLPAG (also called Peptide No 51) [5T4 9-mer peptide 51 NQLAVLPAG] showed a t½ half life [4] of 3.2 h.

RHLDLSNNS [5T4 9-mer peptide 119 RHLDLSNNS] gave a t½ half life [16] of 1.1 h.

Work on SNHFLYLPR (also called Peptide No 110) [5T4 9-mer peptide 110 SNHFLYLPR] yielded a t½ half life [29] of 0.9 h and a t½ half life [30] of 1.2 h.

In the case of MVTWLKETE (also called Peptide No 153) [5T4 9-mer peptide 153 MVTWLKETE], the t½ half life [31] is reported as 1.2 h.

In the case of TWLKETEVV [5T4 9-mer peptide 154 TWLKETEVV], the t½ half life [31] is reported as 6.4 h.

In the case of LPAYVRNLF (also called Peptide No 45) [5T4 9-mer peptide 45 LPAYVRNLF], the t½ half life [32] is reported as 1.7 h.

In the case of LTNLSSNSD [5T4 9-mer peptide 206 LTNLSSNSD], the t½ half life [24] is reported as 0.7 h.
